Molecular target: taxol-stabilized microtubules
Assay: co-sedimentation

Substance: 6×His-CLASP2(340–650), wild type (from UniProt O75122-3 340-650) (domain or fragment)
- Kd: < 300 nM

Reference: publication PMC2699158
